Source: patent US20140141450A1

How the values were obtained:
[1] = molecular target: Peptide sequence VII: NH2-…-TAG Plus; assay: competitive ECL immunoassay; anti-FLAG M1 beads with peptide sequence VII-TAG Plus, uncleaved peptide sequence VI present, Xa 0.00 ng/mL
[2] = molecular target: NH2-…-TAG (SEQ ID NO:5); assay: ECL capture assay; uncleaved NH2-…-TAG at 2.5 µg/mL, FXa 0.00 ng/mL
[3] = molecular target: NH2-…-TAG (SEQ ID NO:5); assay: ECL capture assay; uncleaved NH2-…-TAG at 5.0 µg/mL, FXa 0.00 ng/mL
[4] = molecular target: NH2-…-TAG (SEQ ID NO:5); assay: ECL capture assay; uncleaved NH2-…-TAG at 1.25 µg/mL, FXa 0.00 ng/mL

- Mean Signal (ECL, without FXa) [1]: 91800 ECL signal
- Mean Signal (ECL, background without FXa) [2]: 856 ECL signal
- Mean Signal (ECL, background without FXa) [3]: 1770 ECL signal
- Mean Signal (ECL, background without FXa) [4]: 593 ECL signal
Substance: Biotin-conjugated ANTI-FLAG® M1 antibody
